Kd, koff and kon data for 13 molecules are collected here from patent US20240209076A1 (KODIAK SCIENCES, published 2024).

Residue numbers refer to the chain shown, from its start. In names and notes the source's numbering stands.

B1: anti-IL-6 antibody, light chain T96V (heavy chain WT) (antibody, V domains shown)
VH: EVQLVESGGGLVQPGGSLRLSCAASGFTFSPFAMSWVRQAPGKGLEWVAKISPGGSWTYYSDTVTGRFTFSLDTSKSTAYLQMNSLRAEDTAVYYCARQLWGYYALDIWGQGTLVTVSS
VL: DIQLTQSPSSLSASVGDRVTITCSASISVSYMYWYQQKPGKAPKLLIYDMSNLASGVPSRFSGSGSGTDFTLTISSLQPEDFATYYCMQWSGYPYVFGQGTKVEIK
notes: See note of m2; also called WT / T96V
B2: dual inhibitor molecule A (VEGF Trap-AntiIL-6) (other)
heavy: SDTGRPFVEMYSEIPEIIHMTEGRELVIPCRVTSPNITVTLKKFPLDTLIPDGKRIIWDSRKGFIISNATYKEIGLLTCEATVNGHLYKTNYLTHRQTNTIIDVVLSPSHGIELSVGEKLVLNCTARTELNVGIDFNWEYPSSKHQHKKLVNRDLKTQSGSEMKKFLSTLTIDGVTRSDQGLYTCAASSGLMTKKNSTFVRVHEKGGGGSGGGGSEVQLVESGGGLVQPGGSLRLSCAASGFTFSPFAISWVRQAPGKGLEWVAKISPGGSWTYYSDTVTDRFTFSLDTSKSTAYLQMNSLRAEDTAVYYCARQLWGYYALDVWGQGTLVTVSSASTKGPSVFPLAPSSKSTSGGTAALGCLVKDYFPEPVTVSWNSGALTSGVHTFPAVLQSSGLYSLSSVVTVPSSSLGTQTYICNVNHKPSNTKVDKKVEPKSCDKTHTCPPCPAPEAAGAPSVFLFPPKPKDTLMISRTPEVTCVVVDVSHEDPEVKFNWYVDGVEVHNAKTKPREEQYNSTYRVVSVLTVLHQDWLNGKEYKCKVSNKALPAPIEKTISKAKGQPREPQVYTLPPSREEMTKNQVSLTCLVKGFYPSDIAVEWESNGQPENNYKTTPPVLDSDGSFFLYSKLTVDKSRWQQGNVFSCSVMHEALHNHYTQKSLSCSPGK
light: DIQLTQSPSSLSASVGDRVTITCSASISVSYLYWYQQKPGKAPKLLIYDDSSLASGVPSRFSGSGSGTDFTLTISSLQPEDFATYYCQQWSGYPYTFGQGTKVEIKRTVAAPSVFIFPPSDEQLKSGTASVVCLLNNFYPREAKVQWKVDNALQSGNSQESVTEQDSKDSTYSLSSTLTLSKADYEKHKVYACEVTHQGLSSPVTKSFNRGEC
B3: dual inhibitor molecule L (AntiIL-6-VEGF Trap) (other)
heavy: EVQLVESGGGLVQPGGSLRLSCAASGFTFSPFAWSWVRQAPGKGLEWVAKISPGGSWTYYSDTVTDRFTFSLDTSKSTAYLQMNSLRAEDTAVYYCARQLWGYYALDVWGQGTLVTVSSASTKGPSVFPLAPSSKSTSGGTAALGCLVKDYFPEPVTVSWNSGALTSGVHTFPAVLQSSGLYSLSSVVTVPSSSLGTQTYICNVNHKPSNTKVDKKVEPKSCGGGGSGGGGSSDTGRPFVEMYSEIPEIIHMTEGRELVIPCRVTSPNITVTLKKFPLDTLIPDGKRIIWDSRKGFIISNATYKEIGLLTCEATVNGHLYKTNYLTHRQTNTIIDVVLSPSHGIELSVGEKLVLNCTARTELNVGIDFNWEYPSSKHQHKKLVNRDLKTQSGSEMKKFLSTLTIDGVTRSDQGLYTCAASSGLMTKKNSTFVRVHEKDKTHTCPPCPAPEAAGAPSVFLFPPKPKDTLMISRTPEVTCVVVDVSHEDPEVKFNWYVDGVEVHNAKTKPREEQYNSTYRVVSVLTVLHQDWLNGKEYKCKVSNKALPAPIEKTISKAKGQPREPQVYTLPPSREEMTKNQVSLTCLVKGFYPSDIAVEWESNGQPENNYKTTPPVLDSDGSFFLYSKLTVDKSRWQQGNVFSCSVMHEALHNHYTQKSLSCSPGKPGK
light: B2 light with S52N
notes: Trap-antibody fusion, VEGF trap between the Fab region (VH variant II) and the Fc; light chain variant V
B4: dual inhibitor molecule G (AntiIL-6-VEGF Trap) (other)
heavy: EVQLVESGGGLVQPGGSLRLSCAASGFTFSPFAISWVRQAPGKGLEWVAKISPGGSWTYYSDTVTDRFTFSLDTSKSTAYLQMNSLRAEDTAVYYCARQLWGYYALDVWGQGTLVTVSSASTKGPSVFPLAPSSKSTSGGTAALGCLVKDYFPEPVTVSWNSGALTSGVHTFPAVLQSSGLYSLSSVVTVPSSSLGTQTYICNVNHKPSNTKVDKKVEPKSCGGGGSGGGGSSDTGRPFVEMYSEIPEIIHMTEGRELVIPCRVTSPNITVTLKKFPLDTLIPDGKRIIWDSRKGFIISNATYKEIGLLTCEATVNGHLYKTNYLTHRQTNTIIDVVLSPSHGIELSVGEKLVLNCTARTELNVGIDFNWEYPSSKHQHKKLVNRDLKTQSGSEMKKFLSTLTIDGVTRSDQGLYTCAASSGLMTKKNSTFVRVHEKDKTHTCPPCPAPEAAGAPSVFLFPPKPKDTLMISRTPEVTCVVVDVSHEDPEVKFNWYVDGVEVHNAKTKPREEQYNSTYRVVSVLTVLHQDWLNGKEYKCKVSNKALPAPIEKTISKAKGQPREPQVYTLPPSREEMTKNQVSLTCLVKGFYPSDIAVEWESNGQPENNYKTTPPVLDSDGSFFLYSKLTVDKSRWQQGNVFSCSVMHEALHNHYTQKSLSCSPGK
light: B2 light
notes: Trap-antibody fusion, VEGF trap between the Fab region (VH variant I) and the Fc; light chain variant III
B5: dual inhibitor molecule E (VEGF Trap-AntiIL-6) (other)
heavy: B2 heavy with I249W
light: B2 light with D50A
notes: Trap-antibody fusion, VEGF trap at the N-terminus of the anti-IL-6 heavy chain (VH variant II); light chain variant IV
B6: dual inhibitor molecule H (AntiIL-6-VEGF Trap) (other)
heavy: B4 heavy
light: B2 light with D50A
notes: Trap-antibody fusion, VEGF trap between the Fab region (VH variant I) and the Fc; light chain variant IV
B7: dual inhibitor molecule B (VEGF Trap-AntiIL-6) (other)
heavy: B2 heavy
light: B2 light with D50A
notes: Trap-antibody fusion, VEGF trap at the N-terminus of the anti-IL-6 heavy chain (VH variant I); light chain variant IV
B8: dual inhibitor molecule J (AntiIL-6-VEGF Trap) (other)
heavy: B4 heavy with I34W
light: B2 light
notes: Trap-antibody fusion, VEGF trap between the Fab region (VH variant II) and the Fc; light chain variant III
B9: dual inhibitor molecule K (AntiIL-6-VEGF Trap) (other)
heavy: B4 heavy with I34W
light: B2 light with D50A
notes: Trap-antibody fusion, VEGF trap between the Fab region (VH variant II) and the Fc; light chain variant IV
B10: dual inhibitor molecule D (VEGF Trap-AntiIL-6) (other)
heavy: B2 heavy with I249W
light: B2 light
notes: Trap-antibody fusion, VEGF trap at the N-terminus of the anti-IL-6 heavy chain (VH variant II); light chain variant III
B11: dual inhibitor molecule I (AntiIL-6-VEGF Trap) (other)
heavy: B4 heavy
light: B2 light with S52N
notes: Trap-antibody fusion, VEGF trap between the Fab region (VH variant I) and the Fc; light chain variant V
B12: dual inhibitor molecule F (VEGF Trap-AntiIL-6) (other)
heavy: B2 heavy with I249W
light: B2 light with S52N
notes: Trap-antibody fusion, VEGF trap at the N-terminus of the anti-IL-6 heavy chain (VH variant II); light chain variant V
B13: dual inhibitor molecule C (VEGF Trap-AntiIL-6) (other)
heavy: B2 heavy
light: B2 light with S52N
notes: Trap-antibody fusion, VEGF trap at the N-terminus of the anti-IL-6 heavy chain (VH variant I); light chain variant V

The target of the first assay is T1, recombinant human IL-6 (human, UniProt P05231 30-212).
T1 construct: Bought protein
T1 sequence (P05231 30-212 limits assumed): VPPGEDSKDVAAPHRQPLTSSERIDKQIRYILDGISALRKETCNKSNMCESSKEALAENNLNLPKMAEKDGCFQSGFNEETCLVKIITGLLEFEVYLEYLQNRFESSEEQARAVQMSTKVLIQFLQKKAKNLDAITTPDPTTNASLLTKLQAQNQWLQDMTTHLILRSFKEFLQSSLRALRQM
In words: SPR Biacore, purified Ab on Protein A chip, IL-6 analyte, 37 C. The method, then:
Antibodies were captured on a Protein A chip (GE) by injecting 1:20 dilution of cell supernatant at 10 μL/min for 60 seconds. […] The sensor chip was regenerated by a 60 seconds injection of 10 mM Glycine pH 1.7 at flow rate of 50 μL/min. […] For this setup, 1 μg/mL of purified antibody was injected over a Protein A chip at 10 μL/min for 25-28 seconds. Data analysis for supernatant and purified samples were performed using BIAevaluation software (GE). All sensorgrams were double reference subtracted and fit using a 1:1 Langmuir binding model.
On the technique in general: Surface plasmon resonance follows binding to a sensor surface in real time, without labels.
A word on the Kd: it is the constant that tells how readily two partners part at equilibrium. In general, koff refers to the rate constant with which the complex falls apart. The kon is a measure of how fast the partners come together. On to B1, for which the dissociation constant Kd is 0.695 nM, the koff was determined as 0.000639 s⁻¹ and the kon was 921000 M⁻¹ s⁻¹.

A further assay has as its target T1, recombinant human IL-6. In words: SPR Biacore, supernatant Ab on Protein A chip, IL-6 analyte, 25 C.
Regarding B1, the Kd worked out at 0.423 nM, the koff is 0.000192 s⁻¹ and the kon came to 454000 M⁻¹ s⁻¹.

A further assay deals with T1, recombinant human IL-6. Kind of assay: SPR Biacore, purified dual inhibitor on Protein A chip, IL-6 analyte, 37 C.
In the case of B2, the Kd was 0.484 nM, the koff is 0.000538 s⁻¹ and the on-rate (kon) came out at 1.11e+06 M⁻¹ s⁻¹.

Consider B3, for which the Kd is 0.436 nM, the koff came to 0.00065 s⁻¹ and the kon is 1.49e+06 M⁻¹ s⁻¹.

As to B4, the Kd was determined as 0.451 nM, the koff turned out to be 0.000567 s⁻¹ and the kon was 1.26e+06 M⁻¹ s⁻¹.

As to B5, the Kd was 0.424 nM, the koff worked out at 0.000459 s⁻¹ and the kon was 1.08e+06 M⁻¹ s⁻¹.

B6: the Kd stood at 0.396 nM, the koff is 0.000529 s⁻¹ and the kon was found to be 1.34e+06 M⁻¹ s⁻¹.

Take B7: the Kd is 0.507 nM, the koff was 0.000536 s⁻¹ and the kon is 1.06e+06 M⁻¹ s⁻¹.

Turning to B8, the Kd came out at 0.468 nM, the koff worked out at 0.000664 s⁻¹ and the kon was found to be 1.42e+06 M⁻¹ s⁻¹.

As for B9, the Kd is 0.452 nM, the koff stood at 0.000579 s⁻¹ and the on-rate (kon) turned out to be 1.28e+06 M⁻¹ s⁻¹.

On to B10, for which the Kd stood at 0.365 nM, the koff came to 0.000447 s⁻¹ and the kon was found to be 1.23e+06 M⁻¹ s⁻¹.

With B11, the Kd stood at 0.435 nM, the koff amounted to 0.000499 s⁻¹ and the kon was determined as 1.15e+06 M⁻¹ s⁻¹.

As for B12, the Kd came to 0.34 nM, the koff was found to be 0.000446 s⁻¹ and the kon stood at 1.31e+06 M⁻¹ s⁻¹.

With B13, the equilibrium dissociation constant (Kd) is 0.477 nM, the koff worked out at 0.000481 s⁻¹ and the kon came out at 1.01e+06 M⁻¹ s⁻¹.

Another assay addresses T1, recombinant human IL-6. Kind of assay: SPR Biacore, supernatant dual inhibitor on Protein A chip, IL-6 analyte, 25 C.
For B2, the Kd came out at 0.589 nM, the koff worked out at 0.000182 s⁻¹ and the kon was found to be 309000 M⁻¹ s⁻¹.

Take B3: the Kd amounted to 0.239 nM, the koff was found to be 0.000169 s⁻¹ and the kon is 705000 M⁻¹ s⁻¹.

With B4, the Kd turned out to be 0.589 nM, the koff was 0.000149 s⁻¹ and the on-rate (kon) was 252000 M⁻¹ s⁻¹.

Turning to B5, the Kd amounted to 0.299 nM, the koff amounted to 0.000151 s⁻¹ and the on-rate constant (kon) was 504000 M⁻¹ s⁻¹.

B6: the Kd was determined as 0.356 nM, the koff was determined as 0.000162 s⁻¹ and the kon came to 454000 M⁻¹ s⁻¹.

In the case of B7, the Kd came out at 0.305 nM, the koff amounted to 0.000185 s⁻¹ and the kon turned out to be 605000 M⁻¹ s⁻¹.

Turning to B8, the Kd came to 0.28 nM, the koff was determined as 0.000149 s⁻¹ and the association rate constant (kon) was determined as 534000 M⁻¹ s⁻¹.

With B9, the equilibrium dissociation constant (Kd) was 0.282 nM, the koff was 0.000178 s⁻¹ and the kon came out at 629000 M⁻¹ s⁻¹.

B10: the equilibrium dissociation constant (Kd) came to 0.253 nM, the koff was determined as 0.000109 s⁻¹ and the kon was found to be 433000 M⁻¹ s⁻¹.

In the case of B11, the equilibrium dissociation constant (Kd) was 0.679 nM, the koff came out at 0.000147 s⁻¹ and the association rate constant (kon) amounted to 217000 M⁻¹ s⁻¹.

In the case of B12, the Kd was 0.225 nM, the koff amounted to 0.000137 s⁻¹ and the on-rate (kon) was 611000 M⁻¹ s⁻¹.

Turning to B13, the Kd is 0.394 nM, the koff was determined as 0.00015 s⁻¹ and the kon turned out to be 379000 M⁻¹ s⁻¹.
